Measurements reported in IntAct's records for PubMed 22493500.

B1: Colicin-A (Citrobacter freundii), P04480 (parent)
chain: MPGFNYGGKGDGTGWSSERGSGPEPGGGSHGNSGGHDRGDSSNVGNESVTVMKPGDSYNTPWGKVIINAAGQPTMNGTVMTADNSSMVPYGRGFTRVLNSLVNNPVSPAGQNGGKSPVQTAVENYLMVQSGNLPPGYWLSNGKVMTEVREERTSGGGGKNGNERTWTVKVPREVPQLTASYNEGMRIRQEAADRARAEANARALAEEEARAIASGKSKAEFDAGKRVEAAQAAINTAQLNVNNLSGAVSAANQVITQKQAEMTPLKNELAAANQRVQETLKFINDPIRSRIHFNMRSGLIRAQHNVDTKQNEINAAVANRDALNSQLSQANNILQNARNEKSAADAALSAATAQRLQAEAALRAAAEAAEKARQRQAEEAERQRQAMEVAEKAKDERELLEKTSELIAGMGDKIGEHLGDKYKAIAKDIADNIKNFQGKTIRSFDDAMASLNKITANPAMKINKADRDALVNAWKHVDAQDMANKLGNLSKAFKVADVVMKVEKVREKSIEGYETGNWGPLMLEVESWVLSGIASSVALGIFSATLGAYALSLGVPAIAVGIAGILLAAVVGALIDDKFADALNNEIIRPAH
partner: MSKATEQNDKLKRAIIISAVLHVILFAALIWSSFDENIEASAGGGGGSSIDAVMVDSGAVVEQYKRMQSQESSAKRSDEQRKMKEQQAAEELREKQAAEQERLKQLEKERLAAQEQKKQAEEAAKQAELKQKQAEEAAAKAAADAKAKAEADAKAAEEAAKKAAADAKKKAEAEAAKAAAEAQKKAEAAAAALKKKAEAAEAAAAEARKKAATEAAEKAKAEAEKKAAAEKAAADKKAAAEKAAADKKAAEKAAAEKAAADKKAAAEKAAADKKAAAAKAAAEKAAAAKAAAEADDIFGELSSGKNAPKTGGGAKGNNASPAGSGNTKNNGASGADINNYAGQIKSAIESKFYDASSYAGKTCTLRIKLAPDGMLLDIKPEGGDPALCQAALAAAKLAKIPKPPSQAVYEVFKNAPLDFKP

Variants of: B1
Details: with tola_ecoli tolA

Variant	effect of a mutation on the interaction
MPGFNYGGKGDGTGWSSERGSGPEPGGGSHGNSGGHDRGDSSNVGNESVTVMKPGDSANTPWGKVIINAAGQPTMNGTVMTADNSSMVPYGRGFTRVLNSLVNNPVSPAGQNGGKSPVQTAVENYLMVQSGNLPPGYWLSNGKVMTEVREERTSGGGGKNGNERTWTVKVPREVPQLTASYNEGMRIRQEAADRARAEANARALAEEEARAIASGKSKAEFDAGKRVEAAQAAINTAQLNVNNLSGAVSAANQVITQKQAEMTPLKNELAAANQRVQETLKFINDPIRSRIHFNMRSGLIRAQHNVDTKQNEINAAVANRDALNSQLSQANNILQNARNEKSAADAALSAATAQRLQAEAALRAAAEAAEKARQRQAEEAERQRQAMEVAEKAKDERELLEKTSELIAGMGDKIGEHLGDKYKAIAKDIADNIKNFQGKTIRSFDDAMASLNKITANPAMKINKADRDALVNAWKHVDAQDMANKLGNLSKAFKVADVVMKVEKVREKSIEGYETGNWGPLMLEVESWVLSGIASSVALGIFSATLGAYALSLGVPAIAVGIAGILLAAVVGALIDDKFADALNNEIIRPAH [Y58A]	disrupting interaction
